The results in this text go back to PMC7735759, “Structural basis of TRPC4 regulation by calmodulin and pharmacological agents” (eLife, 2020).

Experiment [1] deals with T1, TRPC4 (Danio rerio, UniProt U3N7D8).
T1 construct: gene trpc4b; residues 2–915
T1 sequence (U3N7D8 2-915): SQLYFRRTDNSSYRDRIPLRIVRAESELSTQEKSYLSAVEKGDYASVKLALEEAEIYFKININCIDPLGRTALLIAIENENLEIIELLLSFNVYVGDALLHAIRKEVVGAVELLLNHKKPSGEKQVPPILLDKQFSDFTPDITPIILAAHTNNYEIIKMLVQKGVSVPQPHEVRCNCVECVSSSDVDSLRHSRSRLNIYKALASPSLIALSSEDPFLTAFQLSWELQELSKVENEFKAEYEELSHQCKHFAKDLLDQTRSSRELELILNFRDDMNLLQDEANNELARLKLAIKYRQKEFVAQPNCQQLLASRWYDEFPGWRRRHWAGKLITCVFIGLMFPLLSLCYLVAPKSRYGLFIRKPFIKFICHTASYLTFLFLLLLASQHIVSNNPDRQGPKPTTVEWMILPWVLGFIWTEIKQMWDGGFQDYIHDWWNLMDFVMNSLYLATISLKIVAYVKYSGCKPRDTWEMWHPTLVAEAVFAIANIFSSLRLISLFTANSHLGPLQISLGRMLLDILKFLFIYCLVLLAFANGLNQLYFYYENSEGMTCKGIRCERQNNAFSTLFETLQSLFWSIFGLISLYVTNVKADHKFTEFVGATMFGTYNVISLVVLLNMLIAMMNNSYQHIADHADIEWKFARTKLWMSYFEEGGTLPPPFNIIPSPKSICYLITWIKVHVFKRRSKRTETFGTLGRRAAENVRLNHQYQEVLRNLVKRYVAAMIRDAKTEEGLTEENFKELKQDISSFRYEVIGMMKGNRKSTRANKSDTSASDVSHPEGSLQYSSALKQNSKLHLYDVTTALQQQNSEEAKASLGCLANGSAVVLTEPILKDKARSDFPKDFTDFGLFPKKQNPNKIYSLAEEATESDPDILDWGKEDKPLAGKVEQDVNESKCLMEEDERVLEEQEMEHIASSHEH
Kind of experiment: cryo-EM structure at […] Å; also dose-dependent inhibition of (-)-Englerin A currents in TRPC4-expressing oocytes. It counts as binding.

The target of experiment [2] is T1, TRPC4. The description is as above. Type of experiment: binding. This is another data set of the same source.
Experiment [3] deals with T1, TRPC4. The description is as above. It counts as binding. The source holds these as a separate data set.
Experiment [4] deals with Zebrafish TRPC4 (Danio rerio TRPC4, residues 2-915) (Danio rerio (zebrafish)). In words: cryo-EM structure; TRPC4-CaM complex in LMNG, 10 mM calcium chloride, 10 µM CaM added; 3D sorting without symmetry for the stoichiometries.
Experiment [5] has the same target. In words: cryo-EM structure; TRPC4 alone: apo in LMNG, and in amphipols with 100 µM GFB-8438, GFB-9289 or GFB-8749; C4 symmetry.

For the compound `O=C1CN(c2cn[nH]c(=O)c2Cl)CCN1C1CCCCC1` [GFB-9289, 4-chloro-5-(4-cyclohexyl-3-oxopiperazin-1-yl)-2,3-dihydropyridazin-3-one], the “cryo-EM structure at 3.2 Å; also dose-dependent inhibition of (-)-Englerin A cur” value in experiment [1] is recorded as “we found an extra density inside the VSL domain region of GFB-9289-bound TRPC4”.
For `O=C1CN(c2cn[nH]c(=O)c2Cl)CCN1Cc1ccccc1C(F)(F)F` [GFB-8438], the “cryo-EM structure at 3.6 Å; also dose-dependent inhibition of (-)-Englerin A cur” value in experiment [2] is reported as “The shape of the density clearly indicated that it corresponds to the bound inhibitor”.
Regarding `O=C1CN(c2cn[nH]c(=O)c2Cl)CCN1CC1CCC(F)(F)CC1` [GFB-8749], in experiment [3], the “cryo-EM structure at 3.8 Å; also dose-dependent inhibition of (-)-Englerin A cur” value was “an extra density was observed inside the VSL domain region of GFB-8749-bound TRPC4”.
As for “Mouse calmodulin (CaM) (from UniProt P0DP26 1-149) (natural protein)”, in experiment [4], the percent of TRPC4 channels with four CaM bound (fully saturated) is 20%, the percent of TRPC4 channels with one CaM bound was 13%, the percent of TRPC4 channels with three CaM bound turned out to be 31% and the percent of TRPC4 channels with two CaM bound came to 35%. Besides, the stoichiometry N (CaM per TRPC4 tetramer) in experiment [4] was less than 4.
As a reminder, the stoichiometry N is the number of molecules, sites or subunits per partner or assembly. With “Zebrafish TRPC4 (Danio rerio TRPC4, residues 2-915) (natural protein)”, the stoichiometry N in experiment [4] and in experiment [5] was 4 in each case.
